The results in this text go back to article PMC2819690 (The Journal of Cell Biology, 2010).

In this experiment the target is SNARE (H3) domain of syntaxin-1a (aa 180–262) (rat, UniProt P32851 180-262). Description: assembly of purified monomers and anion-exchange chromatography.
Chain of SNARE (H3) domain of syntaxin-1a (aa 180–262) (P32851 180-262): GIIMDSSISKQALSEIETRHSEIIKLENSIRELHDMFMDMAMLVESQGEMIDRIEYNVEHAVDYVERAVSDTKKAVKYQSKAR

For the molecule NVDKVLERDQKLSELDDRADALQAGASQFETSAAKLKRKYWWKNLKMM (domain or fragment) [Syb49–96], the binding result is on record as “binds”.
